Residue numbers refer to the chain shown, from its start. Numbers in names are those of the source.

The labels stand for the following.
T1: pig-derived WARS1 recombinant protein (pig) (UniProt K9IVV5)
T1 sequence: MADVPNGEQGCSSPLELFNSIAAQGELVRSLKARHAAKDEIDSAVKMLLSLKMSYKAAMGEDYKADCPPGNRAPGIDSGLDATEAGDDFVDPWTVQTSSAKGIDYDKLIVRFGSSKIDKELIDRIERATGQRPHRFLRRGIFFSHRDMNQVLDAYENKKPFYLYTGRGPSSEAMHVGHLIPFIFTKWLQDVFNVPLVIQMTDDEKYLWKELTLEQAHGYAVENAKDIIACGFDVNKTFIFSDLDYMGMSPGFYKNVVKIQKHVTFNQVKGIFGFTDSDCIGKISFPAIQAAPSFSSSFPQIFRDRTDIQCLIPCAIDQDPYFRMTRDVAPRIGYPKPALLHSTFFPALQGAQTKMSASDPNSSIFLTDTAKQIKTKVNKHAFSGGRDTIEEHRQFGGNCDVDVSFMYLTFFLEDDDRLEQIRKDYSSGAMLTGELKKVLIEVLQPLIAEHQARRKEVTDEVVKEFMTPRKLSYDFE

T2: human WARS1 recombinant protein (human, UniProt P23381 2-471, limits assumed)
T2 construct: Recombinant protein, detected with an anti-His tag antibody; In the western blot also secreted WARS1 from THP-1 supernatant and human serum; also called human-derived WARS1 recombinant protein
T2 sequence: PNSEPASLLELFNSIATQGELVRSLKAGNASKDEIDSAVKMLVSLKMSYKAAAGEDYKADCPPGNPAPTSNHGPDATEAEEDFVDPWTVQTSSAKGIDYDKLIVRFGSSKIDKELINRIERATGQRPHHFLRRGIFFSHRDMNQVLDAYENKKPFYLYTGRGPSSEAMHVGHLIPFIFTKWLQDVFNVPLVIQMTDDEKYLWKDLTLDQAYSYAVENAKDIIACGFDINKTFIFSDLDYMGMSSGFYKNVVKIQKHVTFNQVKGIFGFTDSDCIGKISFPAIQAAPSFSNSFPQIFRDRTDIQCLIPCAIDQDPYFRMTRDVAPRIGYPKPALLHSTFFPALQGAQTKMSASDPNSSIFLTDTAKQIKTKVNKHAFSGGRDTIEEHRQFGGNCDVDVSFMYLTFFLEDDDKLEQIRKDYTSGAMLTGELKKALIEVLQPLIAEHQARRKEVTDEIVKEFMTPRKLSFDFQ

T3: mouse-derived WARS1 recombinant protein (mouse, UniProt P32921 1-481, limits assumed)
T3 construct: Recombinant, His-tagged (detected with anti-His tag antibody); construct not described; In the western blot also secreted WARS1 from J774A.1 supernatant and mouse serum; also called mouse WARS1
T3 sequence (looked up): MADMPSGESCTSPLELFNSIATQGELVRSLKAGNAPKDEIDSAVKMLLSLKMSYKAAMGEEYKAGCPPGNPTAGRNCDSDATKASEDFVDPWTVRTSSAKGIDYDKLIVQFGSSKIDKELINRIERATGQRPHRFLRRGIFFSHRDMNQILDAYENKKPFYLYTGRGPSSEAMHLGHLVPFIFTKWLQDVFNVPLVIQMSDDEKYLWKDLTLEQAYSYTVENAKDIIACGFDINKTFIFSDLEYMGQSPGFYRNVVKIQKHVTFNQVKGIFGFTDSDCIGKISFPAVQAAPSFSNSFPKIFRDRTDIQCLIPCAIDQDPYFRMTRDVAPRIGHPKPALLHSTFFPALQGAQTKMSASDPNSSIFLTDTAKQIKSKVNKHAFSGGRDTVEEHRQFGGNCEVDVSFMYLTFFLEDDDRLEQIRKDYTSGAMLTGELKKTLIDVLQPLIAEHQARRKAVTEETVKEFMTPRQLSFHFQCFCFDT

T4: rat-derived WARS1 recombinant protein (rat, UniProt Q6P7B0 1-481, limits assumed)
T4 construct: Recombinant, His-tagged (detected with anti-His tag antibody); construct not described; also called rat WARS1
T4 sequence (looked up): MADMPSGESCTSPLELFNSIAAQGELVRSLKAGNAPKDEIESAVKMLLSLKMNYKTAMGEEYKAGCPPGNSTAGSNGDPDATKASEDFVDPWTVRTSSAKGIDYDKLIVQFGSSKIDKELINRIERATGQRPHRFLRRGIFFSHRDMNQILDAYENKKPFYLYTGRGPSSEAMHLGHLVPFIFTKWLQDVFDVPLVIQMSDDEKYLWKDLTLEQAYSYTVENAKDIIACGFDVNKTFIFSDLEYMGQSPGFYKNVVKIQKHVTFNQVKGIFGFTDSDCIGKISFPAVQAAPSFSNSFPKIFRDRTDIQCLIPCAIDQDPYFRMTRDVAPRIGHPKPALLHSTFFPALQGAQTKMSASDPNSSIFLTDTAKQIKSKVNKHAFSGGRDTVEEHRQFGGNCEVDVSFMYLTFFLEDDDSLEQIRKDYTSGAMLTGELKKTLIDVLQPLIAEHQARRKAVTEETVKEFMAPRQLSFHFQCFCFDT

B1: SHL/QLN (antibody, V domains shown)
VH: EVQLLESGGGLVQPGGSLRLSCAASGFTFSSYDMSWVRQAPGKGLEWVSAISSGGSSIYYADSVKGRFTISRDNSKNTLYLQMNSLRAEDTAVYYCARDVAWDMLGDFDYWGQGTLVTVSS
VL: QSVLTQPPSASGTPGQRVTISCTGSSSNIGSNYVYWYQQLPGTAPKLLIYANQLRPSGVPDRFSGSKSGTSASLAISGLRSEDEADYYCGAWDDSNSAYVFGGGTKLTVLT
notes: L-CDR2 and L-CDR3 variant of GKB101; also called SHL/QLN antibody
B2: SHL/ILN (antibody, V domains shown)
VH: B1 VH
VL: B1 VL with Q53I
notes: L-CDR2 and L-CDR3 variant of GKB101; also called SHL/ILN antibody
B3: SHL/LLN (antibody, V domains shown)
VH: B1 VH
VL: B1 VL with Q53L
notes: L-CDR2 and L-CDR3 variant of GKB101; also called SHL/LLN antibody
B4: H54K (antibody, V domains shown)
VH: B1 VH
VL: B1 VL with Q53S, L54K, N96L
notes: L-CDR2 variant of GKB101; also called H54K antibody; M105A
B5: H54Q (antibody, V domains shown)
VH: B1 VH
VL: B1 VL with Q53S, L54Q, N96L
notes: L-CDR2 variant of GKB101; also called H54Q antibody
B6: S53V (antibody, V domains shown)
VH: B1 VH
VL: B1 VL with Q53V, L54H, N96L
notes: L-CDR2 variant of GKB101; also called S53V antibody
B7: S53Q (antibody, V domains shown)
VH: B1 VH
VL: B1 VL with L54H, N96L
notes: L-CDR2 variant of GKB101; also called S53Q antibody
B8: S53L (antibody, V domains shown)
VH: B1 VH
VL: B1 VL with Q53L, L54H, N96L
notes: L-CDR2 variant of GKB101; also called S53L antibody

One test has as its target marmoset (NHP)-derived WARS1 recombinant protein (marmoset (NHP)) (UniProt U3CR73). The test is described as follows: direct ELISA. A general note: An ELISA detects its analyte on a solid surface through an enzyme-linked reagent.
One may read the Kd as the concentration at which binding is half-saturated. On to B1, for which the Kd was 1 pM.
On the same count and under the same terms, the same measure for B2: 1 pM; for B3: 1 pM.

A further test addresses T1, pig-derived WARS1 recombinant protein (pig). In words: direct ELISA.
On to B4, for which the Kd was determined as 1000 pM.
On the same count and under the same terms, with B5 the figure was 1000 pM; with B6, 1000 pM.
For B7, the Kd is 1000 pM.
Still for that read-out and setting: the same measure for B8: 1000 pM.

The target in the next test is T2, human WARS1 recombinant protein. In words: direct ELISA. On the procedure:
(§1) Specifically, for direct ELISA, a 96-well plate (Maxisorp, Thermo Fisher) was coated with WARS1 having a 1 μg/ml concentration of a recombinant protein derived from human, marmoset (NHP), mouse, rat, and pig, and then blocked with PBS containing 1% BSA at room temperature for 1 hour. The GKB101 antibody or a variant antibody thereof was diluted in a concentration-dependent manner, added to each coated well, reacted at room temperature for 1 hour, and then washed four times with PBST (PBS+Tween20). Each well was treated and reacted for 1 hour with an antibody (anti-Human IgG, cell signaling) to which HRP is attached, and then washed with PBST. Lastly, after developing with a TMB substrate (BD), its absorbance was measured at 490 nm (NIVO) (FIGS. 4a to 5).
With B4, the dissociation constant Kd was about 1 pM.
The same measure, in the same setting: with B1 the figure was about 1 pM; with B2, about 1 pM.
For B7, the Kd was about 1 pM.
Regarding B3, the equilibrium dissociation constant (Kd) was about 1 pM.

The target in another test is T3, mouse-derived WARS1 recombinant protein. In words: direct ELISA. On the procedure: as §1
In the case of B4, the Kd was about 1 pM.
As to B5, the dissociation constant (Kd) is about 1 pM.
Same read-out and setting: with B1 the figure was about 1 pM; with B2, about 1 pM; with B6, about 1 pM.
For B7, the Kd was about 1 pM.
In the case of B3, the Kd is about 1 pM.

Another test has as its target T4, rat-derived WARS1 recombinant protein. In words: direct ELISA. On the procedure: as §1
For the molecule B4, the Kd is about 1 pM.
B5: the Kd was about 1 pM.
Still for that read-out and setting: the same measure for B1: about 1 pM.
Consider B2, for which the Kd is about 1 pM.
Same read-out and setting: with B6 the figure was about 1 pM; with B7, about 1 pM; with B3, about 1 pM.

The target in a further test is T2, human WARS1 recombinant protein. In words: cell-based or functional assay.
With B4, the “secretion of TNF-α in mouse macrophage J774A.1 cells” value (“secretion of TNF-α” below) was at least 40%.
On to B1, for which the “secretion of TNF-α” value is at least 40%.
Same read-out and setting: with B7 the figure was at least 40%; with B8, at least 40%.
As to B3, the “secretion of TNF-α” value is at least 40%.

In the next test the target is T4, rat-derived WARS1 recombinant protein. In words: western blot; recombinant protein. On the procedure: (§2) At this time, a WARS1 recombinant protein (human, mouse, pig, marmoset (NHP), or rat-derived), cell culture medium, and human or mouse serum were used as WARS1 protein samples. In particular, the cell culture medium was used by treating the human monocyte cell line, THP-1, or the mouse macrophage cell line, J774.1A, with LPS (lipopolysaccharide, 100 ng/ml) for 24 hours to induce an inflammatory response, and then the cell culture supernatant was obtained for use.
(§3) 30 μg of each of the WARS1 recombinant protein (human, mouse, pig, marmoset (NHP), or rat-derived), the cell supernatant obtained using the method above, and mouse or human serum was loaded onto 8% SDS-PAGE, then transferred to a PVDF membrane (Millipore). Afterwards, the membrane was reacted with 1 μg/ml of GKB101 or a variant antibody thereof for 1 hour each, then washed with TBST (TBS+Tween20) three times. Afterwards, it was reacted with a secondary antibody (anti-human IgG HRP, Millipore) for 1 hour, then washed with TBST three times to be treated with ECL (West® bright ECL, Advanta) to identify its protein expression (LAS-4000, Fujifilm).
Consider B8, for which the binding result is listed as “binds”.

For a further test, the target named is T2, human WARS1 recombinant protein. The test is described as follows: western blot; recombinant protein, THP-1 culture supernatant, human serum. On the procedure: as §2, §3
Take B5: the binding result is “binds”.
Same read-out and setting: with B6 the entry was “binds”.

The target in a further test is T3, mouse-derived WARS1 recombinant protein. In words: western blot; recombinant protein, J774A.1 culture supernatant, mouse serum. On the procedure: as §2, §3
(Immunoblotting shows a protein as a band on a membrane.)
For the molecule B8, the binding result is on record as “binds”.
